Experiment [1] deals with T1, mouse MerTK overexpressed on CHO cells (mouse, UniProt Q60805 19-994).
T1 construct: whole, on cells; also called CHO-muMerTK OE
T1 sequence (looked up): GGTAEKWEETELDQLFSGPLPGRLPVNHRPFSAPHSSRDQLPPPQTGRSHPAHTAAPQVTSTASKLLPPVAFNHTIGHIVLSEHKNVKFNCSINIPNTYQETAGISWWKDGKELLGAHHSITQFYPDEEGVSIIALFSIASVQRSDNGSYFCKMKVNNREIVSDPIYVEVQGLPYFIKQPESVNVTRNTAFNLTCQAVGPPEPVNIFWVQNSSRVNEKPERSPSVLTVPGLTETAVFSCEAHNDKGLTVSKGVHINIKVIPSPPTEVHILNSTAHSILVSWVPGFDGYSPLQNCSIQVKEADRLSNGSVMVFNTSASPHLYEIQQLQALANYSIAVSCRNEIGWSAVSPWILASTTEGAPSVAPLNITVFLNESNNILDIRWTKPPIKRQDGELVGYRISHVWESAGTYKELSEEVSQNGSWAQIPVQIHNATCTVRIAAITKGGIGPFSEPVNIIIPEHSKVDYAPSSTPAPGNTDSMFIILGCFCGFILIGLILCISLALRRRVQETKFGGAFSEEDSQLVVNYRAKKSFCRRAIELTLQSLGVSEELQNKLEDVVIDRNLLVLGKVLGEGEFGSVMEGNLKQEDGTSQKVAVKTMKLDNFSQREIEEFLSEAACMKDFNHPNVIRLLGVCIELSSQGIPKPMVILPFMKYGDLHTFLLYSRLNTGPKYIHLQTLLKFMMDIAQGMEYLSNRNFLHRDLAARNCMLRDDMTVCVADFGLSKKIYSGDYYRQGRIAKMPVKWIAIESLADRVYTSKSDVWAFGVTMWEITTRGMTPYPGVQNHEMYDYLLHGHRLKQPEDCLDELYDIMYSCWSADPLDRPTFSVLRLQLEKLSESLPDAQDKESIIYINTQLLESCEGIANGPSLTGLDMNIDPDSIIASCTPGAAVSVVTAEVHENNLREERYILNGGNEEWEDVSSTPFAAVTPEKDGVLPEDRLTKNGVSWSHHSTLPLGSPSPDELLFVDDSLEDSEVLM
The experiment is described as follows: FACS, CHO-muMerTK OE cells, 10 ug/ml. Here is the method:
To determine whether recombinant anti-human MerTK antibodies of the present disclosure bind to human MerTK endogenously expressed on SK-MEL-5 cells and CHO cells overexpressing mouse MerTK (CHO-muMerTK OE cells), as compared to A375 and parental CHO cells as negative controls, the following experiments were performed. SK-MEL-5 cells, A375 cells, CHO-muMerTK OE cells, and CHO parental cells were plated at 100,000 cells/well. Anti-MerTK antibodies were added to the cells at 10 μg/ml. After 60 minutes on ice, cells were washed and then stained with PE-conjugated goat anti-human IgG antibody (Southern Biotech Cat #2040-09, Birmingham, AL) in the presence of Fc block solution on ice for 30 minutes, and then washed twice with cold FACS buffer (2% FBS in PBS). Mouse anti-human MerTK-PE conjugated (Biolegend, Clone 590H11G1E3) or anti-mouse MerTK-PE conjugated (ThermoFisher, Clone DS5MMER) antibodies were used as positive controls. Stained cells were acquired on a BD FACS Canto II cytometer and the mean fluorescence intensity (MFI) was calculated with FlowJo.
(In general: A flow cytometer gives signals particle by particle.)

The target in experiment [2] is T2, Recombinant human MerTK-human Fc Chimera protein (human, UniProt Q12866 26-499, limits assumed).
T2 construct: bought construct; also called MerTK-Fc (R&D systems, Cat #391-MR-100)
T2 sequence: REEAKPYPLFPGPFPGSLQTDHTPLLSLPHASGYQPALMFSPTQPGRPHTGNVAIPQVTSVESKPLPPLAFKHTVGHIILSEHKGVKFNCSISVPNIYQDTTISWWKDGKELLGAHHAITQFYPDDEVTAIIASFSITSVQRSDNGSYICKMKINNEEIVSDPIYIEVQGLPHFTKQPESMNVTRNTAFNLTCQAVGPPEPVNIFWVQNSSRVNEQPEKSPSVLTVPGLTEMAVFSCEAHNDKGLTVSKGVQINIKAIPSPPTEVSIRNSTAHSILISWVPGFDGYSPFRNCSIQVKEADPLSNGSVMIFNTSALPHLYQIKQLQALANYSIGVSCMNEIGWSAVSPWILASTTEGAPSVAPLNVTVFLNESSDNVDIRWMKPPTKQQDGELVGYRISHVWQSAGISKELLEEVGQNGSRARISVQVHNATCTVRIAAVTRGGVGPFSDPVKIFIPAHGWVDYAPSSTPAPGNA
Briefly: blocking ELISA, Gas6-His on MerTK-Fc, Ab 66.6 nM, isotype=100%. As to the method:
Briefly, rabbit anti-human IgG antibody (Jackson ImmunoResearch, Cat #309-005-008) was coated at 2 μg/ml onto high-protein binding plates at 4° C. overnight. After washing with 0.05% Tween20 in PBS three times, 5% BSA in PBS was added for 1 hour. Recombinant human MerTK-human Fe Chimera protein (R&D systems, Cat #391-MR-100) was added at 2 μg/ml for 1 hour and plates were washed before the addition of 40 μl of anti-MerTK hybridoma supernatants and 40 μl of His tag-conjugated recombinant Gas6 (R&D systems, Cat #885-GSB-050) at 3 μg/ml or His tag-conjugated recombinant ProS (R&D systems, Cat #9489-PS-100) at 20 μg/ml. After a further incubation for 1 hour, plates were washed and incubated for 1 hour with HRP-conjugated anti-6×His tagged antibody (Abcam, Cambridge, MA, Cat #ab1187). Plates were then washed and an HRP substrate, TMB, was added to develop the plates. The reaction was stopped by adding 50 μl 2N H₂SO₄ and the OD was measured using a spectrophotometer (BioTek).
Anti-MerTK antibodies were titrated to a final concentration from 66.6 nM to 4 pM and tested against anti-human MerTK antibody M6 (disclosed in WO2016/106221) or isotype control antibody.
(In an ELISA, binding on a coated surface is turned into a signal by an enzyme label.)

B1: MTK-228 (antibody, human IgG1, V domains shown)
VH: QDQLQQSGPELVKPGASVKISCKASGYSFTSYYIHWVKQRPGQGLEWVGWIFPGNGNTKYNERFKGKATLTADTSSSTAYMQLSSLTSEDSAVYYCARLGLIYALDYWGQGTSVTVSS
VL: DAVMTQTPLSLPVSLGDQASISCRSSQSLENSNGNTYLHWYLQKPGQSPQLLIYRVSNRFSGVLDRFSGSGSGTDFTLKISRVEAEDLGVYFCLQVTHVPFTFGSGTKLEIK
Molecule B1 came in with an MFI in experiment [1] of 17400 MFI. Moreover, in experiment [2], the “Percent Gas6 ligand binding” value turned out to be 110%.

B2: MTK-218 (antibody, human IgG1, V domains shown)
VH: QVQLQQSGPELVKPGTSVKISCKASGYSFTSYYIHWVKQRPGQGLDWIGWIFPGNRNTQYNEKFKGKATLTADTSSSTAYMQLSSLTSEDSAVYYCARLGLIYALDYWGQGTSVTVSS
VL: DAVMTQTPLSLPVSLGDQASISCRSSQSLENSNGHTYLHWYLQKPGQSPQLLIYRVSNRFSGVQDRFSGSGSGTDFTLKISRVEAEDLGVYFCLQVTHVPFTFGSGTKLEIK
As for B2, the MFI in experiment [1] was determined as 13200 MFI. The “Percent Gas6 ligand binding” value in experiment [2] worked out at 112%.

B3: MTK-226 (antibody, human IgG1, V domains shown)
VH: QVQLQQSGPELVKPGASVKISCKASGYSFTSYYIHWVKQRPGQGLEWIGWIFPGNGNTKYNENFRGKATLTADTSSSTAYMQLSSLTSEDSAVYYCARLGLIYALDYWGQGTSVTVSS
VL: DAVMTQTPLSLPVSLGDQASISCRSSQSLESSNGNTYLHWYLQKPGQSPQLLIYRVSNRFSGVLDRFSGSGSGTDFTLQISRVEAEDLGVYFCLQVTHVPFTFGSGTKLEIK
For the molecule B3, the MFI in experiment [1] was 11500 MFI. For the same molecule, in experiment [2], the “Percent Gas6 ligand binding” value was determined as 109%.

B4: MTK-201 (antibody, human IgG1, V domains shown)
VH: QVQLRQSGPGLVQPSQSLSITCTVSGFSLSNYGLHWVRQSPGKGLEWLGVIWSGGITDYNAAFISRLSIIKDNSRSQVFFKMNSLQADDTAIYYCARKGHDPYAMDFWGQGTSVTVSS
VL: QIVLTQSPPIMSAFLGERVTMTCTASSSVSSSYLHWYRQMPGSSPKLWIYDTSNLASGVPARFSGSGSGTSYSLTISSMEAEDAATYYCHQYHHSPYTFGGGTKLEIK
For the molecule B4, the MFI in experiment [1] was determined as 252 MFI. For the same molecule, in experiment [2], the “Percent Gas6 ligand binding” value worked out at 112%.

B5: MTK-216 (antibody, human IgG1, V domains shown)
VH: EVQLVESGGGLVKPGGSLKLSCAASGFTFSDYGMHWVRQAPEKGLEWVAFISSGSTTIYYADTVKGRFTISRDNAKNTLILQMTSLRSEDTAIYYCTRGGFHLDYWGQGTTLTVSS
VL: SIMMTQSPSSLAVSAGEKVTMGCKSSQSVLYSANQQNYLAWYQQKPGQSLKLLIYWASTRESGVPDRFTGSGSGTDFTLTISSVQAEDLAVYYCHQYFSSWTFGGGTKLEIK
For the molecule B5, in experiment [2], the “Percent Gas6 ligand binding” value was found to be 104%.

B6: MTK-203 (antibody, human IgG1, V domains shown)
VH: QVQLQQPGAELVKPGASVKVSCKASGYTFTNYWMHWVKQRPGQGLEWIGRIHPFDTETNDNQKFKGKATLTVDKSSSTAYMQLSSLTSEDSAVYYCVIPANGGFAYWGQGTLVTVSA
VL: ETTVTQSPASLSVATGEKVTIRCITSTDIGDDMNWYQQKPGEPPKVLISEGNSLRPGVPSRFSSSGYGTDFVFTIENTLSEDVADYFCLQSDNLPLTFGSGTKLEIK
In experiment [1], B6 had an MFI of 2080 MFI.

B7: MTK-206 (antibody, human IgG1, V domains shown)
VH: QVQLQQSGAELARPGASVKMSCKASGYTFTSYTMHWVKQRPGQGLEWIGYINPSSGYIKNSQKFKDKATLTADKSSSTAYMQLSSLTSEDSAVYYCARTVYGYYGSSPDYWGQGTTLTVSS
VL: DIQMTQSPSSLSASLGERVSLTCRASQDIGSNLNWLQQEPDGTIKRLIYATSSLESGVPKRFSGSRSGSDYSLTISSLESEDFVDYYCLQYDSSPWTFGGGTKLEIK
For the molecule B7, the “Percent Gas6 ligand binding” value in experiment [2] amounted to 103%.

B8: MTK-224 (antibody, human IgG1, V domains shown)
VH: QVQLQQPGAELVKPGASVKVSCKASGYTFTSYWMHWVKQRPGQGLEWIGRIHPFDSDTNYNQKFKGKATLTVDKSSSTAYMQLSSLTSEDSAVYYCSIAGFAYWGQGTLVTVSA
VL: DIVMTQSPATLSVTPGDRVSLSCRASQIISDYLNWYQQKSHESPRLLIKYASQSISGIPSRFSGSGSGSDFTLSINSVEPEDVGVYYCQNGHSFPLTFGAGTKLELK
In turn, B8 came in with an MFI in experiment [1] of 616 MFI.

B9: MTK-209 (antibody, human IgG1, V domains shown)
VH: QVQLQQPGAELVKPGASVKVSCKASGYTFTNYWIHWVKQRPGQGLEWIGRIHPFDSEPNYNQKFKGKATLTVDKSSSTAYMHLTSLTSEDSAVYYCALASFAYWGQGTLVTVSA
VL: ETTVTQSPASLSMAMGEKATIRCITSTDIDDKMNWYQQKPGKPPKLLISAGNTLRPGVPSRFSSSGYGTDFVLTVENMLSEDVADYYCLQGGALPLTFGSGTKLEIK
Molecule B9 had an MFI in experiment [1] of 1220 MFI.

B10: MTK-227 (antibody, human IgG1, V domains shown)
VH: EVKLVESGGGLVQPGGSLSLSCAASGFTFTDNYMTWVRQPPGKALEWLGFSRNKANGYTTEYSASVKGRFTISRDSSQSILYLQMNALRAEDSGTYYCARFPPHYYAGGYFDVWGTGTTVTVSS
VL: DIQMTQSPASLSASVGETVTITCRASENIYSYLAWYQQKQGKSPQLLVYNAKTLAEGVPSRFSGSGSGTQFSLKINSLQPADFGSYYCQHYYRTPPTFGGGTKLEIK
The molecule B10 gave an MFI in experiment [1] of 14200 MFI. Besides, the “Percent Gas6 ligand binding” value in experiment [2] is 99.9%.

B11: MTK-215 (antibody, human IgG1, V domains shown)
VH: EVQLVESGGGLVKPGGSLKLSCAASGFIFSDYGMHWVRQAPEKGLEWVAYISSGSSTIYYGDTVKGRFTISRDNAKNTLFLQMTSLRSEDTAMYYCAKGGRYGAMDYWGHGTSVTVSS
VL: DIVLTQSPATLSVTPGDSVSLSCRASQSISNNLHWYQQKSHESPRLLIKNPSQSISGIPSRFGARGSGTDFTLIINSVETEDLGVYFCQQSNSWPFTFGSGTKLEIK
Regarding B11, the “Percent Gas6 ligand binding” value in experiment [2] is 110%.

B12: MTK-230 (antibody, human IgG1, V domains shown)
VH: EVQLQQSGPELVKPGASVRIPCKASGYTFSDYNMDWVKQSHGKSLEWIGNINPNIGGTIYSQKFKGKATLTVDKSSSTAYMELRSLTSEDTAVYYCARGDYGFASWGQGTLVTVSA
VL: DIVLTQSPASLTVSLGQRATISCRASRSVSTSGYSYMHWYQQKPGQPPKLLIYLASNLESGVPARFSGSRSGTDFTLNIHPVEEEDAATYYCQHSREYPFTFGSGTKLEIK
Regarding B12, in experiment [1], the MFI was 12400 MFI.

(Values after patent US20240294650A1 (Alector, published 2024).)
